One block for each molecule: values may come before it. Numbered stars: 1 amine (or outer) side, 2 acyl side, 3 side chain; on linkers, the order of the positions; unused ones are H or OH. Side chains are listed from the residue outwards. * marks the point of attachment. C18 diacid = O=C(O)CCCCCCCCCCCCCCCCC(=O)*; γGlu = O=C(O)[C@H](CCC(=O)[*:2])N[*:1]; Isovaleryl = CC(C)CC(=O)*; AEEA = NCCOCCOCC(=O)O; Ahx = NCCCCCC(=O)O
Assays:
[1] = Effect on acute food intake (AFI) in normal NMRI mice; type: in vivo; settings: male NMRI mice, 10 nmol/kg s.c. once, % vs. vehicle group
Experimental: Effect on Acute Food Intake in Normal NMRI Mice
Male NMRI mice were obtained from Charles River (Charles River, Research Models & Services Germany GmbH) or from JanVier (JanVier Labs, France) at 5 weeks of age. […] Room temperature was controlled to 21° C.±1° C., with 60%±20% humidity.
Animals were transferred 5-7 days before the start of the study to a real-time food intake monitoring system, HM-2 system (MBRose, Denmark), to allow acclimatization to experimental conditions. As the animals were uniquely identified with microchips, each individual animal was identified by its microchip upon entry and exit from the food channel. Randomization of the mice for each study group (n=7-8) was based on body weight measured the day before the start of the study. A vehicle-treated (50 mM phosphate buffer pH7 with 5% Mannitol) group was included in each experiment. Six hours before the start of the night phase animals were fasted. One hour before the dark phase animals were dosed once subcutaneously (10 nmol/kg) with test peptide. […] The food intake of the treated groups was normalized (in %) to the average food intake of the group receiving vehicle (Table 1). Statistical significance was evaluated using One-way analysis of variance with Turkey's multiple comparison test. P<0.05 was considered statistically significant.

[2] = Effect on body weight loss and food intake in wildtype Diet Induced Obesity (DIO) mice; type: in vivo
Text: Effect on Body Weight Loss in Wildtype Diet Induced Obesity Mice
Male C57BL6/J pre-fed on 60% high fat diet were obtained from The Jackson Laboratories at >16 weeks of age. Upon arrival of the Diet Induced Obesity (DIO) mice, the mice where single housed to obtain accurate and individual food intake measurements of each animal and assigned an animal number. […] During the entire study animals had ad libitum access to food and water.
Before start of treatment a stratified randomization was performed based on the body weight measured in week −1 prior study start. At study start the age of mice was around 20 weeks. Bodyweight and food intake were measured daily before compound administration. Animals were dosed around one hour before start of the night phase by subcutaneous injection of 30 nmol/kg once daily for 5 till 28 days depending on the experiment. Control animals were dosed by subcutaneous injection daily with vehicle.

[3] = molecular target: T1, human NPY2 receptor (human, UniProt P49146); assay: radioligand binding competition (125I-PYY(1-36)) on human NPY2R membranes, filtration
T1 sequence: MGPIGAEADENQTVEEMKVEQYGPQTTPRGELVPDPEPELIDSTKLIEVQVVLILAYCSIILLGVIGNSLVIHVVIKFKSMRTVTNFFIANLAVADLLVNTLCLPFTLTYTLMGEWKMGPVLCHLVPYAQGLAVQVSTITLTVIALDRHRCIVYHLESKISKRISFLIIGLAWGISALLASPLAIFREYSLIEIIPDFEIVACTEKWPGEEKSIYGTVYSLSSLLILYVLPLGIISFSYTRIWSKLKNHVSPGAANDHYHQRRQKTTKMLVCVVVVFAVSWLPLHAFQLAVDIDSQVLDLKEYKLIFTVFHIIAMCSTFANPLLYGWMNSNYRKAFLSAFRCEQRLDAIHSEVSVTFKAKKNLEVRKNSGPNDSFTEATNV
Experimental: The filtration RLB assay was carried out in 96-well plates in a final volume of 100 μl per well. Freeze-dried test peptides were dissolved in 100% dimethyl sulfoxide (DMSO) to stock solutions of 1 mM and serial dilutions were performed in assay buffer (50 mM HEPES, 5 mM MgCl₂, 1 mM CaCl₂, pH 7.4) containing 0.2% ovalbumin. […] Subsequently, 10 μl of human ¹²⁵I-PYY(1-36) (Perkin Elmer) in assay buffer containing 0.2% ovalbumin was added to wells to give a final concentration of 0.02 nM. Next, 80 μL membranes (HTS066M, ChemiSCREEN™ Human Neuropeptide Y2 Receptor Membrane Preparation, CHEMICON) were added to each well to give a final protein concentration of 0.5 μg/well. The plates were sealed and incubated at room temperature for 2 hours in a plate shaker set at 400 rpm. The incubation was stopped by vacuum filtration onto 0.5% poly-ethylene amine (PEI) presoaked GF/C filters using a 96-well FilterMate™ harvester (Perkin Elmer) followed by four washes with 300 μl/well ice-cold wash buffer (50 mM HEPES, 500 mM NaCl, pH7.4). Filter plates were then dried for 60 min at room temperature and the bottom of the plates was sealed with backing tape UniFilter-96. Finally, 50 μl/well scintillation counter cocktail (Microscint20, Packard) was added, and the radioactivity was counted in the Packard TopCount NXT scintillation counter. IC₅₀ values (the half maximal inhibitory concentration of the agonist) were calculated by nonlinear regression analysis of sigmoidal dose-response curves.

Molecule: CC[C@H](C)[C@H](NC(=O)[C@H](CCC(=O)O)NC(=O)[C@H](CCC(=O)O)NC(=O)[C@@H]1CCCN1C(=O)[C@H](CO)NC(=O)[C@H](C)NC(=O)[C@H](CC(=O)O)NC(=O)[C@H](CCC(=O)O)NC(=O)[C@H](CCC(=O)O)NC(=O)[C@@H]1CCCN1C(=O)[C@H](CCCCNC(=O)COCCOCCNC(=O)COCCOCCNC(=O)CC[C@H](NC(=O)CCCCCCCCCCCCCCCCC(=O)O)C(=O)O)NC(=O)[C@H](C)NC(=O)[C@@H]1CCCN1C(=O)[C@H](C)NC(=O)CC(C)C)C(=O)N[C@@H](CCC(N)=O)C(=O)N[C@@H](CCCNC(=N)N)C(=O)N[C@@H](Cc1ccc(O)cc1)C(=O)N[C@@H](Cc1ccc(O)cc1)C(=O)N[C@H](C(=O)N[C@@H](CO)C(=O)N[C@@H](CC(C)C)C(=O)N[C@@H](CCCNC(=N)N)C(=O)N[C@@H](Cc1c[nH]cn1)C(=O)N[C@@H](Cc1ccc(O)cc1)C(=O)N[C@@H](Cc1ccc(O)cc1)C(=O)N[C@@H](CC(N)=O)C(=O)N[C@@H](Cc1c[nH]c2ccccc12)C(=O)N[C@@H](CC(C)C)C(=O)N[C@H](C(=O)N[C@@H](CCCNC(=N)N)C(=O)N[C@@H](CCC(N)=O)C(=O)N[C@@H](CCCNC(=N)N)C(=O)N[C@@H](Cc1ccc(O)cc1)C(N)=O)[C@@H](C)O)C(C)C [Compound E, N{alpha-4}-(3-methylbutanoyl)-N{epsilon-7}-[2-(2-{2-[2-(2-{2-[(4S)-4-carboxy-4-(17-carboxyheptadecanamido)butanamido]ethoxy}ethoxy)acetamido]ethoxy}ethoxy)acetamido]-[4A,6A,7K,9E,17I,18Q,22V,28Y,30W,31L]hPYY(4-36)]
AFI 10 nmol/kg 24 h (food intake normalized to vehicle group) [1]: 48%
BW 30 nmol/kg 5 day (body weight loss vs. vehicle group) ([2]; 30 nmol/kg s.c. once daily, 5 day): 7.3%
body weight lowering efficacy (% BW), combination with Compound I compared to combination with semaglutide ([2]; once daily (FIGS. 6A, 8A vs. 5A, 7A)): greater body weight lowering efficacy
duration of food intake reduction, combination with Compound I vs. combination with semaglutide ([2]; once daily (FIGS. 6B, 8B vs. 5B, 7B)): longer-lasting effect on food intake
total food intake, combination with Compound I ([2]; once daily, area under the curve of food intake (FIGS. 6D, 8D)): pronounced total food intake reduction
body weight loss in combination with Compound I ([2]; once daily, combination with Compound I (FIGS. 6A, 8A, 10A)): Synergistic body weight loss
effect on body weight in combination with semaglutide ([2]; once daily, combination with semaglutide (FIGS. 5A, 7A, 9A)): synergistic effect

Ki [3]: 0.46 nM
B1: Reference 3 (peptide)
peptide: Isovaleryl-RPEKPEEDASPEELQRYYVSLRHYYNWLTRQRY-NH2
modifications: not fully specified (residue 4); printed as iVal-RPEK(C18DA-gGlu-OEG-OEG)PEEDASPEELQRYYVSLRHYYNWLTRQRY-NH2

Ki [3]: 1.95 nM
B2: Compound C (peptide)
peptide: Isovaleryl-APAK([AEEA-AEEA-γGlu-C18 diacid])PEEEASPEELQRYYVSLRHYYNWLTRQRY-NH2
SMILES: CC(C)CC(=O)N[C@@H](C)C(=O)N1CCC[C@H]1C(=O)N[C@@H](C)C(=O)N[C@@H](CCCCNC(=O)COCCOCCNC(=O)COCCOCCNC(=O)CC[C@H](NC(=O)CCCCCCCCCCCCCCCCC(=O)O)C(=O)O)C(=O)N1CCC[C@H]1C(=O)N[C@@H](CCC(=O)O)C(=O)N[C@@H](CCC(=O)O)C(=O)N[C@@H](CCC(=O)O)C(=O)N[C@@H](C)C(=O)N[C@@H](CO)C(=O)N1CCC[C@H]1C(=O)N[C@@H](CCC(=O)O)C(=O)N[C@@H](CCC(=O)O)C(=O)N[C@@H](CC(C)C)C(=O)N[C@@H](CCC(N)=O)C(=O)N[C@@H](CCCNC(=N)N)C(=O)N[C@@H](Cc1ccc(O)cc1)C(=O)N[C@@H](Cc1ccc(O)cc1)C(=O)N[C@H](C(=O)N[C@@H](CO)C(=O)N[C@@H](CC(C)C)C(=O)N[C@@H](CCCNC(=N)N)C(=O)N[C@@H](Cc1c[nH]cn1)C(=O)N[C@@H](Cc1ccc(O)cc1)C(=O)N[C@@H](Cc1ccc(O)cc1)C(=O)N[C@@H](CC(N)=O)C(=O)N[C@@H](Cc1c[nH]c2ccccc12)C(=O)N[C@@H](CC(C)C)C(=O)N[C@H](C(=O)N[C@@H](CCCNC(=N)N)C(=O)N[C@@H](CCC(N)=O)C(=O)N[C@@H](CCCNC(=N)N)C(=O)N[C@@H](Cc1ccc(O)cc1)C(N)=O)[C@@H](C)O)C(C)C

Ki [3]: 0.66 nM
Molecule: Isovaleryl-APAK([AEEA-AEEA-γGlu-C18 diacid])PEEDATPEELQRYYVSLRHYYNWLTRQRY-NH2 [Compound A]

Ki [3]: 0.4 nM
B3: Reference 2 (peptide)
peptide: APEKPGEDASPEELQRYYVSLRHYYHWLTRQRY
modifications: not fully specified; N-terminal iVal (3-methylbutanoyl); the Lys (4th residue) carries C18DA-gGlu-OEG-OEG; C-terminal amide (-NH2)

Ki [3]: 1.96 nM
Molecule: Isovaleryl-APEK([AEEA-AEEA-γGlu-C18 diacid])PEEDATPEELQKYYVSLRHYYNWLTRQRY-NH2 [Compound H]

Ki [3]: 0.74 nM
B4: Reference 1 (peptide)
peptide: Isovaleryl-APEKPEEDASPEEIQQYYVSLRHYYNWLTRQRY-NH2
modifications: not fully specified (residue 4); printed as iVal-APEK(C18DA-gGlu-OEG-OEG)PEEDASPEEIQQYYVSLRHYYNWLTRQRY-NH2

Ki [3]: 0.55 nM
Molecule: Isovaleryl-APAK([AEEA-AEEA-γGlu-C18 diacid])PEEDASPEEIQRYYVSLRHYYNWLTRQRY-NH2 [Compound E]

Ki [3]: 1.04 nM
Molecule: Isovaleryl-APEK([Ahx-γGlu-C18 diacid])PEADATPEEIQRYYVSLRHYYNWLTRQRY-NH2 [Compound K]

Ki [3]: 0.24 nM
Molecule: Isovaleryl-APEK([AEEA-AEEA-γGlu-C18 diacid])PEADASPEEIQRYYVSLRHYYNWLTRQRY-NH2 [Compound J]

Ki [3]: 0.31 nM
B5: Compound F (peptide)
peptide: Isovaleryl-APEK([AEEA-AEEA-γGlu-C18 diacid])PEADATPEELQRYYVSLRHYYNWLTRQRY-NH2
SMILES: CC(C)CC(=O)N[C@@H](C)C(=O)N1CCC[C@H]1C(=O)N[C@@H](CCC(=O)O)C(=O)N[C@@H](CCCCNC(=O)COCCOCCNC(=O)COCCOCCNC(=O)CC[C@H](NC(=O)CCCCCCCCCCCCCCCCC(=O)O)C(=O)O)C(=O)N1CCC[C@H]1C(=O)N[C@@H](CCC(=O)O)C(=O)N[C@@H](C)C(=O)N[C@@H](CC(=O)O)C(=O)N[C@@H](C)C(=O)N[C@H](C(=O)N1CCC[C@H]1C(=O)N[C@@H](CCC(=O)O)C(=O)N[C@@H](CCC(=O)O)C(=O)N[C@@H](CC(C)C)C(=O)N[C@@H](CCC(N)=O)C(=O)N[C@@H](CCCNC(=N)N)C(=O)N[C@@H](Cc1ccc(O)cc1)C(=O)N[C@@H](Cc1ccc(O)cc1)C(=O)N[C@H](C(=O)N[C@@H](CO)C(=O)N[C@@H](CC(C)C)C(=O)N[C@@H](CCCNC(=N)N)C(=O)N[C@@H](Cc1c[nH]cn1)C(=O)N[C@@H](Cc1ccc(O)cc1)C(=O)N[C@@H](Cc1ccc(O)cc1)C(=O)N[C@@H](CC(N)=O)C(=O)N[C@@H](Cc1c[nH]c2ccccc12)C(=O)N[C@@H](CC(C)C)C(=O)N[C@H](C(=O)N[C@@H](CCCNC(=N)N)C(=O)N[C@@H](CCC(N)=O)C(=O)N[C@@H](CCCNC(=N)N)C(=O)N[C@@H](Cc1ccc(O)cc1)C(N)=O)[C@@H](C)O)C(C)C)[C@@H](C)O
